Data reported in publication PMC6449940, “The Cdc42 effectors Gic1 and Gic2 regulate polarized post-Golgi secretion” (Cell & Bioscience, 2019).

Target: T1, His6-Cdc42 (S. cerevisiae, UniProt P19073 1-191)
T1 construct: Cdc42, small GTPase, S. cerevisiae; also called Hisx6-Cdc42; Cdc42 wild type; source: bacteria, purified (Hisx6 fusion)
Assay: pull-down; GST-Sec3N (a.a.71–241) on glutathione Sepharose (20 μg), His6-Cdc42 or mutant (10 μg) in the presence of GTPγS; bound protein detected with anti-Hisx6 antibody
Settings: both partners purified

T1 sequence (P19073 whole entry, the tested form may be a part): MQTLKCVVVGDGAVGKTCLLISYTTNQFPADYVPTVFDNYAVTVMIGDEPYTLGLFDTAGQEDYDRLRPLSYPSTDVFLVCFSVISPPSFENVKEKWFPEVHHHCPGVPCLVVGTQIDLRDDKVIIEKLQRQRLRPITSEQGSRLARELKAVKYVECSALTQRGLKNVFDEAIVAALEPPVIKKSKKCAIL

B1: GST-Sec3N (a.a.71–241) (domain or fragment, S. cerevisiae (budding yeast), UniProt P33332 71-241, looked up)
chain: SSQTSNFLAEQYERDRKAIINCCFSRPDHKTGEPPNNYITHVRIIEDSKFPSSRPPPDSKLENKKKRLLILSAKPNNAKLIQIHKARENSDGSFQIGRTWQLTELVRVEKDLEISEGFILTMSKKYYWETNSAKERTVFIKSLITLYIQTFEGHVPELVNWDLSLFYLDER
notes: Sec3, exocyst subunit, budding yeast, residues 71-241 (N-terminus, PH domain-like region); also called Amino-terminus of Sec3 (a.a.71–241); source: GST fusion protein, purified and conjugated to glutathione Sepharose
  binding result: binds
